Assay results as given in patent publication US20240115500A1, “POLYMERIC MICELLE COMPLEXES OF MRNA OR ZWITTERIONIC AGENTS, AND FORMULATIONS AND USES THEREOF” (Aravasc Inc., priority 2020, published 2024).

B1: interferon gamma: interferon protein tested for complexation with PBC (protein, UniProt P01579 24-161, looked up)
Interferon gamma: QDPYVKEAENLKKYFNAGHSDVADNGTLFLGILKNWKEESDRKIMQSQIVSFYFKLFKNFKDDQSIQKSVETIKEDMNVKFFNSNKKKRDDFEKLTNYSVTDLNVQRKAIHELIQVMAELSPAAKTGKRKRSQMLFRG

Assay: Agarose gel electrophoresis of protein + PBC formulations at defined w/w ratios (Example 2)
[1] = polymer:protein ratio 15:1, FIG. 2A-2D

Experimental: Unless otherwise indicated, the complexation was conducted at room temperature by incubating the PBC with the protein for 10-20 minutes on a microcentrifuge. A formulation of PBC alone was prepared along with the protein and PBC complexes.
Formulation were prepared as described above and analyzed by agarose gel electrophoresis. A 2% agarose gel was prepared and 20 μl of each formulation was loaded at the center of the gel. The gel was run for 30 minutes at 75V.

Row | Molecule | complexation with the polymer (agarose gel) [1] | complexation with the polymer (agarose gel) (polymer:protein ratio 30:1, FIG. 2A/2B) | complexation with the polymer (agarose gel) (polymer:protein ratio 18:1, FIG. 2D)
1 | Semaglutide | significantly complex | significantly complex | –
2 | interferon alpha | – | – | significantly complex
3 | B1 | significantly complex | – | –
